Measurements reported in paper PMC11091522.

B1: CD3 Apt3 monomer (XNA)
RNA: GGGAGAGAAGGAUAGGGUCCCUACCUGAAACUCGAAGAUGAGCCCUGUCUGAUUCCUUAUACCUCCUUUCCC
modifications: 2'-fluoro pyrimidines
B2: CD3 Apt1 monomer (XNA)
RNA: GGGAGAGAAGGAUAGGGCCCCGAUUGAUUCGCAAUGUGCGUCCCCUCGUGCCUUCCUUAUACCUCCUUUCCC
modifications: 2'-fluoro pyrimidines
B3: CD3 Apt12 monomer (XNA)
RNA: GGGAGAGAAGGAUAGGGUCCCCUGUCGAUAUCCACCGUCUGGCCCGCAUUGAUUCCUUAUACCUCCUUUCCC
modifications: 2'-fluoro pyrimidines
B4: CD3 Apt5 monomer (XNA)
RNA: GGGAGAGAAGGAUAGGGCCUUGCCUGCUUUCACGUGUGAUCCCUGCCCGUUUCCUUAUACCUCCUUUCCC
modifications: 2'-fluoro pyrimidines

Target: T1, rmCD3δε-Fc (CD3 delta/CD3 epsilon heterodimer) (mouse, UniProt P04235;P22646 22-105;22-108)
T1 sequence 1: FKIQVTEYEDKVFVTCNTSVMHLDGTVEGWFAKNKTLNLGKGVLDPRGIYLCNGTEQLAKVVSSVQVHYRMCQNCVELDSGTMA
T1 sequence 2: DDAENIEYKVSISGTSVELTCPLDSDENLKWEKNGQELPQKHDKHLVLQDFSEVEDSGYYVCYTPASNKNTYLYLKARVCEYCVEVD
Experiment: filter binding

Binder	binding result
B1	binds
B2	binds
B3	binds
B4	binds
